Where two headings read alike, the source gives them in different places.
Experiments:
[1] = Conjugator-antibody conjugate maleimide hydrolysis (ring opening) kinetics by reduced LCMS; format: physicochemical
Method: After the conjugation step, the ADC (or conjugator-antibody conjugate) was subjected to buffer exchange into ring opening buffer (pH 6.5˜9.0, PBS, borate or tris buffer) and the solution was left at 22 or 37° C. for 1˜48 h. The maleimide ring opening process was monitored via reduced LCMS. Once the conjugated maleimide hydrolysis was completed, the resulting ADCs were buffer exchanged into basic tris pH 8.0-8.5 buffer or acidic histidine-acetate pH 5.0-6.5 buffer via dialysis.
LCMS method to monitor and determine maleimide hydrolysis. LC-MS analysis was carried out under the following measurement conditions: • LC-MS system: Vanquish Flex UHPLC and Orbitrap Exploris 240 Mass Spectrometer • Column: MAbPac™ RP, 2.1*50 mm, 4 μm, 1,500 Å, Thermo Scientific™ • Column temperature: 80° C. • Mobile phase A: 0.1% formic acid (FA) aqueous solution • Mobile phase B: Acetonitrile solution containing 0.1% formic acid (FA) • Gradient program 1: 25% B-25% B (0 min-2 min), 25% B-50% B (2 min-18 min), 50% B-90% B (18 min-18.1 min), 90% B-90% B (18.1 min-20 min), 90% B-25% B (20 min-20.1 min), 25% B-25% B (20.1 min-25 min) • Gradient program 2 • Injected sample amount: 2 μg • MS parameters: Intact and denaturing MS data were acquired in HMR mode at setting of R=15k and deconvolved using the ReSpect™ algorithm and Sliding Window integration in Thermo Scientific™ BioPharma Finder™ 4.0 software.
Results for ring opening times measured by the LCMS method described above for monitoring ring hydrolysis are presented in Table 3 as RO T1/2 (h) (i.e., the time, in hours, for 50% of the maleimide rings to open).
Conjugator-antibody conjugate maleimide hydrolysis (ring opening) kinetics are presented in FIGS. 1A-1L, Table 3 (for pH 7.0 reaction conditions, hydrolysis T1/2), and Table 5. The data in Table 5 was generated by the LCMS method described above and includes the time, in hours, for the maleimide ring to open in more than 95% of the conjugators, after antibody conjugation (“RO Completed Time (>95%) (h)”). The results for conjugator-antibody conjugate 3-1 indicate that after 24 hours, about 0% of maleimide rings were open; the results for conjugator-antibody conjugate 3-3 indicate that after 24 hours, about 28% of maleimide rings were open.

[2] = Conjugator-antibody conjugate stability in pH 7.4 and 8.0 buffer with and without GSH; format: physicochemical; conditions: incubation 20 h;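 note: conjugate hydrolysis tracked by LC-MS analysis of reduced samples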
[3] = Conjugator-antibody conjugate stability in formulation buffer (pH 5.5 20 mM histidine buffer); format: physicochemical; conditions: pH 5.5, 22 °C
Method: After the conjugation and hydrolysis steps described above (see “DAR8 antibody drug conjugate/conjugator-antibody conjugate preparation”), conjugator-antibody conjugates were incubated in formulation buffer (pH 5.5 20 mM histidine buffer) or glutathione (GSH) buffer (pH 7.4 or 8.0), […] Hydrolysis status was monitored via reduced LCMS. Results are presented in Table 6, Table 7, and FIGS. 2A-23B.

[4] = Conjugator-antibody conjugate maleimide hydrolysis (ring opening) kinetics by reduced LCMS; format: physicochemical; conditions: pH 7, time point 96 h
B7H3 [5] = biological target: T1, B7H3 (human, UniProt Q5ZPR3 29-534); experiment: cell-based or functional assay
T1 sequence (looked up): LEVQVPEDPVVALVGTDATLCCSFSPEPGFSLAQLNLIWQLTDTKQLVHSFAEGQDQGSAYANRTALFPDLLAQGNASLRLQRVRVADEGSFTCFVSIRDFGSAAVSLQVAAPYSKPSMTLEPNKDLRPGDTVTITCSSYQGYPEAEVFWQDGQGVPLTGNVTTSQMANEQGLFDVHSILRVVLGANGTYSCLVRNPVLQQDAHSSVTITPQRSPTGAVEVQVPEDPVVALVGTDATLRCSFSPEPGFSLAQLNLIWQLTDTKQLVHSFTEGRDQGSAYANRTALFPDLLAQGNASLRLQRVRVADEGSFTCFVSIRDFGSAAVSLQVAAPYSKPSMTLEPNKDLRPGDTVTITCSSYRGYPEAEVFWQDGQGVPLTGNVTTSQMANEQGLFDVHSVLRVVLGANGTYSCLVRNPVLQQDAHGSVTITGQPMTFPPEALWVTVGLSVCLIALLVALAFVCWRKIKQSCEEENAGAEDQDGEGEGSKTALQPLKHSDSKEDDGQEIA

B7H3 [6] = biological target: T1, B7H3; experiment: cell-based or functional assay; remark: listed apart in the source

Molecule: CN(C)C(=O)CCNC(=O)OCC(CCN)N1C(=O)C=CC1=O (centres unmarked) [3-11]
- half-life ([1]; buffer, pH 7.0, time for 50% of the maleimide rings to open, read-out: RO T1/2 (converted)): 14 h
- MS DAR ([1]; pH 7, time point 1 h): 8
- RO (%) HC ([1]; pH 7, time point 1 h): 3.41%
- RO (%) LC ([1]; pH 7, time point 1 h): 1.97%
- RO (%) Total ([1]; pH 7, time point 1 h): 3.05%
- MS DAR ([1]; pH 7, time point 3 h): 8
- RO (%) HC ([1]; pH 7, time point 3 h): 12.32%
- RO (%) LC ([1]; pH 7, time point 3 h): 6.37%
- RO (%) Total ([1]; pH 7, time point 3 h): 10.83%
- MS DAR ([1]; pH 7, time point 5 h): 8
- RO (%) HC ([1]; pH 7, time point 5 h): 31.72%
- RO (%) LC ([1]; pH 7, time point 5 h): 10.15%
- RO (%) Total ([1]; pH 7, time point 5 h): 26.33%
- MS DAR ([1]; pH 7, time point 7 h): 8
- RO (%) HC ([1]; pH 7, time point 7 h): 33.03%
- RO (%) LC ([1]; pH 7, time point 7 h): 14.6%
- RO (%) Total ([1]; pH 7, time point 7 h): 28.42%
- MS DAR ([1]; pH 7, time point 24 h): 8
- RO (%) HC ([1]; pH 7, time point 24 h): 84.46%
- RO (%) LC ([1]; pH 7, time point 24 h): 68.64%
- RO (%) Total ([1]; pH 7, time point 24 h): 80.51%
- MS DAR ([1]; pH 7, time point 96 h): 8
- RO (%) HC ([1]; pH 7, time point 96 h): 96.94%
- RO (%) LC ([1]; pH 7, time point 96 h): 89.26%
- RO Completed Time (>95%) ([1]; pH 7, time for the maleimide ring to open in more than 95% of the conjugators): 96 h
- MS DAR ([2]; pH 7.4, 22 °C): 8.00
- MS DAR ([2]; pH 7.4, 37 °C): 8.00
- MS DAR ([2]; pH 8.0, 22 °C): 8.00
- MS DAR-T = 168 h ([3]; incubation 168 h): 8.00
- Maleimide ring opening ratio (%) at T = 168 h ([3]; incubation 168 h): 96.99%
- MS DAR-T = 0 h [3]: 8.02
- RO (%) Total [4]: 95.02%

B1: ADC4-B (antibody, human IgG1, kappa, V domains shown)
VH: QVQLVQSGAEVKKPGSSVKVSCKASGYTFTNYVMHWVRQAPGQGLEWMGYINPYNDDVKYNEKFKGRVTITADESTSTAYMELSSLRSEDTAVYYCARWGYYGSPLYYFDYWGQGTLVTVSS
VL: EIVLTQSPATLSLSPGERATLSCRASSRLIYMHWYQQKPGQAPRPLIYATSNLASGIPARFSGSGSGTDFTLTISSLEPEDFAVYYCQQWNSNPPTFGQGTKVEIKR
modifications: conjugator-linker-payload on cysteine thiols after TCEP reduction (DAR8); residues not numbered; structure given only as a drawing
- EC50 (nM), ADC direct killing, Capan-1 (Low), 3D (B7H3 [5]): 0.5 nM
- EC50 (nM), ADC direct killing, NCI-H1650 (High), 3D (B7H3 [5]): 3.9 nM
- Emax (%), ADC direct killing, Capan-1 (Low), 3D (B7H3 [5]): 84.9%
- Emax (%), ADC direct killing, NCI-H1650 (High), 3D (B7H3 [5]): 75.3%
- EC50 (nM), ADC direct killing, Capan-1 (Low), 3D (B7H3 [6]): 1.1 nM
- EC50 (nM), ADC direct killing, NCI-H1650 (High), 3D (B7H3 [6]): 4.5 nM
- Emax (%), ADC direct killing, Capan-1 (Low), 3D (B7H3 [6]): 74.3%
- Emax (%), ADC direct killing, NCI-H1650 (High), 3D (B7H3 [6]): 66.5%

B2: ADC4-12 (antibody, human IgG1, kappa, V domains shown)
VH: B1 VH
VL: B1 VL
modifications: conjugator-linker-payload on cysteine thiols after TCEP reduction (DAR8), maleimide hydrolysed; residues not numbered; structure given only as a drawing
- EC50 (nM), ADC direct killing, NCI-H1650 (High), 3D (B7H3 [6]): 2.3 nM
- Emax (%), ADC direct killing, Capan-1 (Low), 3D (B7H3 [6]): 61.9%
- Emax (%), ADC direct killing, NCI-H1650 (High), 3D (B7H3 [6]): 83.2%

B3: ADC4-16 (antibody, human IgG1, kappa, V domains shown)
VH: B1 VH
VL: B1 VL
modifications: conjugator-linker-payload on cysteine thiols after TCEP reduction (DAR8), maleimide hydrolysed; residues not numbered; structure given only as a drawing
- EC50 (nM), ADC direct killing, Capan-1 (Low), 3D (B7H3 [6]): 0.6 nM
- EC50 (nM), ADC direct killing, NCI-H1650 (High), 3D (B7H3 [6]): 1.5 nM
- Emax (%), ADC direct killing, Capan-1 (Low), 3D (B7H3 [6]): 62.2%
- Emax (%), ADC direct killing, NCI-H1650 (High), 3D (B7H3 [6]): 76.4%

B4: ADC4-14 (antibody, human IgG1, kappa, V domains shown)
VH: B1 VH
VL: B1 VL
modifications: conjugator-linker-payload on cysteine thiols after TCEP reduction (DAR8), maleimide hydrolysed; residues not numbered; structure given only as a drawing
- EC50 (nM), ADC direct killing, Capan-1 (Low), 3D (B7H3 [6]): 0.4 nM
- EC50 (nM), ADC direct killing, NCI-H1650 (High), 3D (B7H3 [6]): 1.3 nM
- Emax (%), ADC direct killing, Capan-1 (Low), 3D (B7H3 [6]): 61.3%
- Emax (%), ADC direct killing, NCI-H1650 (High), 3D (B7H3 [6]): 81.6%

B5: ADC4-8 (antibody, human IgG1, kappa, V domains shown)
VH: B1 VH
VL: B1 VL
modifications: conjugator-linker-payload on cysteine thiols after TCEP reduction (DAR8), maleimide hydrolysed; residues not numbered; structure given only as a drawing
- EC50 (nM), ADC direct killing, Capan-1 (Low), 3D (B7H3 [5]): 1 nM
- EC50 (nM), ADC direct killing, NCI-H1650 (High), 3D (B7H3 [5]): 2.9 nM
- Emax (%), ADC direct killing, Capan-1 (Low), 3D (B7H3 [5]): 66.6%
- Emax (%), ADC direct killing, NCI-H1650 (High), 3D (B7H3 [5]): 79.5%

B6: ADC4-10 (antibody, human IgG1, kappa, V domains shown)
VH: B1 VH
VL: B1 VL
modifications: conjugator-linker-payload on cysteine thiols after TCEP reduction (DAR8), maleimide hydrolysed; residues not numbered; structure given only as a drawing
- EC50 (nM), ADC direct killing, Capan-1 (Low), 3D (B7H3 [5]): 0.6 nM
- EC50 (nM), ADC direct killing, NCI-H1650 (High), 3D (B7H3 [5]): 1.7 nM
- Emax (%), ADC direct killing, Capan-1 (Low), 3D (B7H3 [5]): 68.4%
- Emax (%), ADC direct killing, NCI-H1650 (High), 3D (B7H3 [5]): 80%

B7: ADC4-11 (antibody, human IgG1, kappa, V domains shown)
VH: B1 VH
VL: B1 VL
modifications: conjugator-linker-payload on cysteine thiols after TCEP reduction (DAR8), maleimide hydrolysed; residues not numbered; structure given only as a drawing
- EC50 (nM), ADC direct killing, Capan-1 (Low), 3D (B7H3 [6]): 1 nM
- EC50 (nM), ADC direct killing, NCI-H1650 (High), 3D (B7H3 [6]): 2.1 nM
- Emax (%), ADC direct killing, Capan-1 (Low), 3D (B7H3 [6]): 62.4%
- Emax (%), ADC direct killing, NCI-H1650 (High), 3D (B7H3 [6]): 85.6%

B8: ADC4-13 (antibody, human IgG1, kappa, V domains shown)
VH: B1 VH
VL: B1 VL
modifications: conjugator-linker-payload on cysteine thiols after TCEP reduction (DAR8), maleimide hydrolysed; residues not numbered; structure given only as a drawing
- EC50 (nM), ADC direct killing, Capan-1 (Low), 3D (B7H3 [6]): 0.5 nM
- EC50 (nM), ADC direct killing, NCI-H1650 (High), 3D (B7H3 [6]): 1.6 nM
- Emax (%), ADC direct killing, Capan-1 (Low), 3D (B7H3 [6]): 58.5%
- Emax (%), ADC direct killing, NCI-H1650 (High), 3D (B7H3 [6]): 79.3%

B9: ADC4-9 (antibody, human IgG1, kappa, V domains shown)
VH: B1 VH
VL: B1 VL
modifications: conjugator-linker-payload on cysteine thiols after TCEP reduction (DAR8), maleimide hydrolysed; residues not numbered; structure given only as a drawing
- EC50 (nM), ADC direct killing, Capan-1 (Low), 3D (B7H3 [5]): 0.8 nM
- EC50 (nM), ADC direct killing, NCI-H1650 (High), 3D (B7H3 [5]): 2.8 nM
- Emax (%), ADC direct killing, Capan-1 (Low), 3D (B7H3 [5]): 78.8%
- Emax (%), ADC direct killing, NCI-H1650 (High), 3D (B7H3 [5]): 81.4%
